Consider 1 substance from article PMC11740656.

This test has as its target human CLDN4 (YFP- or CFP-tagged) (human). Description: FRET or BRET. For orientation: Bioluminescence resonance energy transfer reports proximity on the nanometre scale.

Values joined by “and” are separate entries in the source; they are usually repeats but may differ in a detail not shown here. Equal values may be shown once.

Take “human CLDN8 (YFP- or CFP-tagged) (natural protein)”: the stoichiometry N (hCLDN8:hCLDN4) was 0.5 and 0.25.
